Measurements published in US20230365647A1 (published 2023).

Molecular target: T1, PLY (W433F) toxoid (Streptococcus pneumoniae, UniProt P0C2J9 2-471)
T1 construct: also called Pdb PLY (W433F); Pdb (W433F)
Experiment: immunofluorescence co-localization in human DCs

B1: Mannose receptor C type 1 on human monocyte-derived dendritic cells (receptor)
chain: LLDTRQFLIYNEDHKRCVDAVSPSAVQTAACNQDAESQKFRWVSESQIMSVAFKLCLGVPSKTDWVAITLYACDSKSEFQKWECKNDTLLGIKGEDLFFNYGNRQEKNIMLYKGSGLWSRWKIYGTTDNLCSRGYEAMYTLLGNANGATCAFPFKFENKWYADCTSAGRSDGWLWCGTTTDYDTDKLFGYCPLKFEGSESLWNKDPLTSVSYQINSKSALTWHQARKSCQQQNAELLSITEIHEQTYLTGLTSSLTSGLWIGLNSLSFNSGWQWSDRSPFRYLNWLPGSPSAEPGKSCVSLNPGKNAKWENLECVQKLGYICKKGNTTLNSFVIPSESDVPTHCPSQWWPYAGHCYKIHRDEKKIQRDALTTCRKEGGDLTSIHTIEELDFIISQLGYEPNDELWIGLNDIKIQMYFEWSDGTPVTFTKWLRGEPSHENNRQEDCVVMKGKDGYWADRGCEWPLGYICKMKSRSQGPEIVEVEKGCRKGWKKHHFYCYMIGHTLSTFAEANQTCNNENAYLTTIEDRYEQAFLTSFVGLRPEKYFWTGLSDIQTKGTFQWTIEEEVRFTHWNSDMPGRKPGCVAMRTGIAGGLWDVLKCDEKAKFVCKHWAEGVTHPPKPTTTPEPKCPEDWGASSRTSLCFKLYAKGKHEKKTWFESRDFCRALGGDLASINNKEEQQTIWRLITASGSYHKLFWLGLTYGSPSEGFTWSDGSPVSYENWAYGEPNNYQNVEYCGELKGDPTMSWNDINCEHLNNWICQIQKGQTPKPEPTPAPQDNPPVTEDGWVIYKDYQYYFSKEKETMDNARAFCKRNFGDLVSIQSESEKKFLWKYVNRNDAQSAYFIGLLISLDKKFAWMDGSKVDYVSWATGEPNFANEDENCVTMYSNSGFWNDINCGYPNAFICQRHNSSINATTVMPTMPSVPSGCKEGWNFYSNKCFKIFGFMEEERKNWQEARKACIGFGGNLVSIQNEKEQAFLTYHMKDSTFSAWTGLNDVNSEHTFLWTDGRGVHYTNWGKGYPGGRRSSLSYEDADCVVIIGGASNEAGKWMDDTCDSKRGYICQTRSDPSLTNPPATIQTDGFVKYGKSSYSLMRQKFQWHEAETYCKLHNSLIASILDPYSNAFAWLQMETSNERVWIALNSNLTDNQYTWTDKWRVRYTNWAADEPKLKSACVYLDLDGYWKTAHCNESFYFLCKRSDEIPATEPPQLPGRCPESDHTAWIPFHGHCYYIESSYTRNWGQASLECLRMGSSLVSIESAAESSFLSYRVEPLKSKTNFWIGLFRNVEGTWLWINNSPVSFVNWNTGDPSGERNDCVALHASSGFWSNIHCSSYKGYICKRPKIIDAKPTHELLTTKADTRKMDPSKPSSNVAGVVIIVILLILTGAGLAAYFFYKKRRVHLPQEGAFENTLYFNSQSSPGTSDMKDLVGNIEQNEHSVI
notes: also called MRC-1
B1: no binding (tested: 0.2 µg/ml).
